Measurements: publication PMC9482650, “Quantitative fragmentomics allow affinity mapping of interactomes” (Nature Communications, 2022)

Assays:
Experiment in all cases: holdup assay
Parameters in all cases: key: below the threshold = too weak to quantify, mostly under pKd 3.1 to 4
Settings in all cases: plain residues with an end cap or a label only (N-terminal biotin on a linker: ttds)
PDLIM4, P50479 = molecular target: PDLIM4, P50479
NHERF1_1, O14745 = molecular target: T1, NHERF1_1, O14745
T1 sequence (O14745 9-104, limits assumed, looked up): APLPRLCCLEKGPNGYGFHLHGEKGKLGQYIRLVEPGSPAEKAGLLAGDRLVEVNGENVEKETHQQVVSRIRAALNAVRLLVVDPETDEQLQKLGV

INTU, Q9ULD6 = molecular target: T2, INTU, Q9ULD6
T2 sequence (Q9ULD6 180-273, limits assumed, looked up): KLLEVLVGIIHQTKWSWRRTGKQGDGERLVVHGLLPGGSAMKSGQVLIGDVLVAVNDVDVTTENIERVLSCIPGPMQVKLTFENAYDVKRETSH

PDZD7_1, Q9H5P4 = molecular target: T3, PDZD7_1, Q9H5P4
T3 sequence (Q9H5P4 81-178, limits assumed, looked up): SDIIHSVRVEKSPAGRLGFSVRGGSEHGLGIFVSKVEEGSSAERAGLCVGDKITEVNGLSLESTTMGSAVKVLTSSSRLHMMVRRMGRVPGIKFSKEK

PARD3_1, Q8TEW0 = molecular target: PARD3_1, Q8TEW0
PDZRN3_2, Q9UPQ7 = molecular target: T4, PDZRN3_2, Q9UPQ7
T4 sequence (Q9UPQ7 414-513, limits assumed, looked up): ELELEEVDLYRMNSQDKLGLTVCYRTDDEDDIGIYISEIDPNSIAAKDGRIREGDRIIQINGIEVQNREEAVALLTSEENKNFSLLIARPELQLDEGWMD

DVL1, O14640 = molecular target: T5, DVL1, O14640
T5 sequence (O14640 246-333, limits assumed, looked up): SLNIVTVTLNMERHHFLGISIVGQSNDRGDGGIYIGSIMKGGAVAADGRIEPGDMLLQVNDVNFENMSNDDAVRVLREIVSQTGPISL

MAGI1_4, Q96QZ7 = molecular target: MAGI1_4, Q96QZ7
TJP1_1, Q07157 = molecular target: TJP1_1, Q07157
MAGI3_3, Q5TCQ9 = molecular target: MAGI3_3, Q5TCQ9
RIMS1, Q86UR5 = molecular target: RIMS1, Q86UR5
MAGI1_5, Q96QZ7 = molecular target: MAGI1_5, Q96QZ7
MPDZ_6, O75970 = molecular target: T6, MPDZ_6, O75970
T6 sequence (O75970 1003-1099, limits assumed, looked up): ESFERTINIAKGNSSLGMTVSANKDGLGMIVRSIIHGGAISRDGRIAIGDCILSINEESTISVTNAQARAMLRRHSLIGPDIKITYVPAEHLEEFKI

NHERF4_3, Q86UT5 = molecular target: NHERF4_3, Q86UT5
SIPA1L3, O60292 = molecular target: T7, SIPA1L3, O60292
T7 sequence (O60292 961-1052, limits assumed, looked up): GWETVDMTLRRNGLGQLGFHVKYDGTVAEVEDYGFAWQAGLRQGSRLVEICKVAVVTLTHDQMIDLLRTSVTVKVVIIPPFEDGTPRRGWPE

PDZD9, Q8IXQ8 = molecular target: PDZD9, Q8IXQ8
MAGI3_4, Q5TCQ9 = molecular target: MAGI3_4, Q5TCQ9
SHROOM4, Q9ULL8 = molecular target: T8, SHROOM4, Q9ULL8
T8 sequence (Q9ULL8 5-102, limits assumed, looked up): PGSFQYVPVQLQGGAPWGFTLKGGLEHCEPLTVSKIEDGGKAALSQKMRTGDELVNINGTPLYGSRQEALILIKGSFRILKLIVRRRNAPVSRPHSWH

PTPN13_5, Q12923 = molecular target: T9, PTPN13_5, Q12923
T9 sequence (Q12923 1877-1975, limits assumed, looked up): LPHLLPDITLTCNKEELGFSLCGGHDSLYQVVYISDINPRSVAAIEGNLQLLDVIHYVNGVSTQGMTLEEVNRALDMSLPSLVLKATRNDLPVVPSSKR

AHNAK2, Q8IVF2 = molecular target: AHNAK2, Q8IVF2
RGS3, P49796-9 = molecular target: RGS3, P49796-9
IL16_2, Q14005 = molecular target: IL16_2, Q14005
MPDZ_11, O75970 = molecular target: T10, MPDZ_11, O75970
T10 sequence (O75970 1720-1817, limits assumed, looked up): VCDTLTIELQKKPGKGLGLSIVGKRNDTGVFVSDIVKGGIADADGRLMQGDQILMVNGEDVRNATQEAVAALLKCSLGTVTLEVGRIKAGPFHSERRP

TJP3_2, O95049 = molecular target: T11, TJP3_2, O95049
T11 sequence (O95049 190-282, limits assumed, looked up): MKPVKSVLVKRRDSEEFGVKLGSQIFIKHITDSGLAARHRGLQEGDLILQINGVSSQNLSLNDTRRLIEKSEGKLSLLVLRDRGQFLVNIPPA

PDZD2_4, O15018 = molecular target: T12, PDZD2_4, O15018
T12 sequence (O15018 723-823, limits assumed, looked up): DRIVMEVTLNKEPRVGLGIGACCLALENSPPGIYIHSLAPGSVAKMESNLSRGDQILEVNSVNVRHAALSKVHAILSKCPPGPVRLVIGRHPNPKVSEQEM

MAGI1_3, Q96QZ7 = molecular target: MAGI1_3, Q96QZ7
Chain of MAGI1_3, Q96QZ7 (Q96QZ7 638-725): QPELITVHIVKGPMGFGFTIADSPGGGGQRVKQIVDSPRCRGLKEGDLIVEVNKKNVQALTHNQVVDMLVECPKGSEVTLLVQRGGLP

Chain of MAGI1_4, Q96QZ7 (Q96QZ7 other isoform, or with tags, fused parts or gaps): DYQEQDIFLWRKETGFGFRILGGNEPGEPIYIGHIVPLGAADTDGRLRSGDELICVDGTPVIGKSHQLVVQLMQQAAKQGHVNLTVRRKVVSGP
Chain of TJP1_1, Q07157 (Q07157 18-120): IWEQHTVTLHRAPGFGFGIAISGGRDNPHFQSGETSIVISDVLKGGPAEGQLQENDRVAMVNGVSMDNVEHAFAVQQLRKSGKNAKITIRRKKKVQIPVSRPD
Chain of MAGI3_3, Q5TCQ9 (Q5TCQ9 572-655): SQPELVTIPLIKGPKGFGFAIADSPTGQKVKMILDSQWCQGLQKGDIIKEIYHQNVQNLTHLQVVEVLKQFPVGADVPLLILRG
Chain of PDZD9, Q8IXQ8 (Q8IXQ8 23-120): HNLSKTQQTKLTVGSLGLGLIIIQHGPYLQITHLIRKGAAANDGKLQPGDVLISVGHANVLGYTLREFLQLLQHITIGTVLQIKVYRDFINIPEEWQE
Chain of PARD3_1, Q8TEW0 (Q8TEW0 264-372): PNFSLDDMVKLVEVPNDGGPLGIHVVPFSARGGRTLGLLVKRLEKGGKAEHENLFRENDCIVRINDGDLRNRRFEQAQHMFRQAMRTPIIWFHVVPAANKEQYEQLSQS
Chain of RIMS1, Q86UR5 (Q86UR5 584-692): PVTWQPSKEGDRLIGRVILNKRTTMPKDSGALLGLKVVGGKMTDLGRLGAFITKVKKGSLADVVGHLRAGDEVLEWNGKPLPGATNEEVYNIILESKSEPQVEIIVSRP
Chain of IL16_2, Q14005 (Q14005 350-450): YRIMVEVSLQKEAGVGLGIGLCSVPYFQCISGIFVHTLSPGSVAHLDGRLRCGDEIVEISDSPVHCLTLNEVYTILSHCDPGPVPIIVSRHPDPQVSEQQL
Chain of PDLIM4, P50479 (P50479 1-83): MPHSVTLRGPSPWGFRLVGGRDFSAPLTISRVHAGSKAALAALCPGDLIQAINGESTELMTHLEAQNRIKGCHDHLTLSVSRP
Chain of RGS3, P49796-9 (P49796 other isoform, or with tags, fused parts or gaps): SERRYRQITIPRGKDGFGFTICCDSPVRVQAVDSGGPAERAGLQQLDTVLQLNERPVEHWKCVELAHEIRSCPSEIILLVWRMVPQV
Chain of NHERF4_3, Q86UT5 (Q86UT5 325-412): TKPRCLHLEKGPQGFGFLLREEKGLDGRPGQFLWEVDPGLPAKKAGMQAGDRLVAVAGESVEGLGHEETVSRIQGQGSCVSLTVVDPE
Chain of MAGI3_4, Q5TCQ9 (Q5TCQ9 716-815): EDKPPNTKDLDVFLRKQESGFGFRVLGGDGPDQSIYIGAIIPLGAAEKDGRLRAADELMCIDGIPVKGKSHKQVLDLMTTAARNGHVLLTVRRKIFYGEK
Chain of MAGI1_5, Q96QZ7 (Q96QZ7 986-1098): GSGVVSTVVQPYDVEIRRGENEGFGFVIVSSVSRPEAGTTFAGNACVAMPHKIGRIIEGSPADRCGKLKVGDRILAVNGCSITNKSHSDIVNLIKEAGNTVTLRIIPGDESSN
Chain of AHNAK2, Q8IVF2 (Q8IVF2 108-193): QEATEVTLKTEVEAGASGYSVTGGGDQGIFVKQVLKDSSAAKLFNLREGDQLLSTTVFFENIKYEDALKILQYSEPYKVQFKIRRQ

B1: HPV33-E6, P06427 (peptide)
chain: SRSRRRETAL
PDLIM4, P50479
  pKd: below the threshold
NHERF1_1, O14745
  pKd: below the threshold
INTU, Q9ULD6
  pKd: 4.54
PDZD7_1, Q9H5P4
  pKd: below the threshold
PARD3_1, Q8TEW0
  pKd: below the threshold
PDZRN3_2, Q9UPQ7
  pKd: below the threshold
DVL1, O14640
  pKd: 4.23
MAGI1_4, Q96QZ7
  pKd: below the threshold
TJP1_1, Q07157
  pKd: below the threshold
MAGI3_3, Q5TCQ9
  pKd: below the threshold
RIMS1, Q86UR5
  pKd: below the threshold
MAGI1_5, Q96QZ7
  pKd: below the threshold
MPDZ_6, O75970
  pKd: below the threshold
NHERF4_3, Q86UT5
  pKd: below the threshold
SIPA1L3, O60292
  pKd: below the threshold
PDZD9, Q8IXQ8
  pKd: below the threshold
MAGI3_4, Q5TCQ9
  pKd: below the threshold
SHROOM4, Q9ULL8
  pKd: below the threshold
PTPN13_5, Q12923
  pKd: below the threshold
AHNAK2, Q8IVF2
  pKd: below the threshold
RGS3, P49796-9
  pKd: below the threshold
IL16_2, Q14005
  pKd: below the threshold
MPDZ_11, O75970
  pKd: below the threshold
TJP3_2, O95049
  pKd: below the threshold
PDZD2_4, O15018
  pKd: below the threshold
MAGI1_3, Q96QZ7
  pKd: below the threshold

B2: HPV82-E6, Q9IR59 (peptide)
chain: PPRQRSETQV
PDLIM4, P50479
  pKd: below the threshold
NHERF1_1, O14745
  pKd: below the threshold
PDZD7_1, Q9H5P4
  pKd: below the threshold
PARD3_1, Q8TEW0
  pKd: below the threshold
PDZRN3_2, Q9UPQ7
  pKd: below the threshold
DVL1, O14640
  pKd: below the threshold
MAGI1_4, Q96QZ7
  pKd: 4.2
TJP1_1, Q07157
  pKd: below the threshold
MAGI3_3, Q5TCQ9
  pKd: below the threshold
RIMS1, Q86UR5
  pKd: below the threshold
MAGI1_5, Q96QZ7
  pKd: 4.37
MPDZ_6, O75970
  pKd: below the threshold
NHERF4_3, Q86UT5
  pKd: below the threshold
SIPA1L3, O60292
  pKd: below the threshold
PDZD9, Q8IXQ8
  pKd: below the threshold
MAGI3_4, Q5TCQ9
  pKd: below the threshold
SHROOM4, Q9ULL8
  pKd: below the threshold
PTPN13_5, Q12923
  pKd: below the threshold
AHNAK2, Q8IVF2
  pKd: below the threshold
RGS3, P49796-9
  pKd: below the threshold
IL16_2, Q14005
  pKd: below the threshold
MPDZ_11, O75970
  pKd: below the threshold
TJP3_2, O95049
  pKd: below the threshold
PDZD2_4, O15018
  pKd: 4.53
MAGI1_3, Q96QZ7
  pKd: 4.28

B3: NET1, Q7Z628 (peptide)
chain: SGGKRKETLV
PDLIM4, P50479
  pKd: below the threshold
NHERF1_1, O14745
  pKd: below the threshold
INTU, Q9ULD6
  pKd: below the threshold
PDZD7_1, Q9H5P4
  pKd: below the threshold
PARD3_1, Q8TEW0
  pKd: below the threshold
PDZRN3_2, Q9UPQ7
  pKd: below the threshold
DVL1, O14640
  pKd: below the threshold
TJP1_1, Q07157
  pKd: 3.89
MAGI3_3, Q5TCQ9
  pKd: below the threshold
RIMS1, Q86UR5
  pKd: below the threshold
MAGI1_5, Q96QZ7
  pKd: 4.72
MPDZ_6, O75970
  pKd: below the threshold
NHERF4_3, Q86UT5
  pKd: below the threshold
SIPA1L3, O60292
  pKd: below the threshold
PDZD9, Q8IXQ8
  pKd: below the threshold
MAGI3_4, Q5TCQ9
  pKd: below the threshold
SHROOM4, Q9ULL8
  pKd: below the threshold
PTPN13_5, Q12923
  pKd: below the threshold
RGS3, P49796-9
  pKd: below the threshold
IL16_2, Q14005
  pKd: below the threshold
MPDZ_11, O75970
  pKd: 3.72
PDZD2_4, O15018
  pKd: below the threshold
MAGI1_3, Q96QZ7
  pKd: 4.91

B4: SLC15A5, A6NIM6 (peptide)
chain: SSIDLWETAL
PDLIM4, P50479
  pKd: below the threshold
NHERF1_1, O14745
  pKd: below the threshold
INTU, Q9ULD6
  pKd: below the threshold
PDZD7_1, Q9H5P4
  pKd: 4.95
PARD3_1, Q8TEW0
  pKd: below the threshold
PDZRN3_2, Q9UPQ7
  pKd: below the threshold
DVL1, O14640
  pKd: below the threshold
MAGI1_4, Q96QZ7
  pKd: below the threshold
TJP1_1, Q07157
  pKd: below the threshold
MAGI3_3, Q5TCQ9
  pKd: below the threshold
RIMS1, Q86UR5
  pKd: below the threshold
MAGI1_5, Q96QZ7
  pKd: 5.82
MPDZ_6, O75970
  pKd: below the threshold
NHERF4_3, Q86UT5
  pKd: below the threshold
SIPA1L3, O60292
  pKd: below the threshold
PDZD9, Q8IXQ8
  pKd: below the threshold
MAGI3_4, Q5TCQ9
  pKd: below the threshold
SHROOM4, Q9ULL8
  pKd: below the threshold
PTPN13_5, Q12923
  pKd: 4.86
AHNAK2, Q8IVF2
  pKd: below the threshold
RGS3, P49796-9
  pKd: below the threshold
IL16_2, Q14005
  pKd: below the threshold
MPDZ_11, O75970
  pKd: below the threshold
TJP3_2, O95049
  pKd: below the threshold
PDZD2_4, O15018
  pKd: below the threshold
MAGI1_3, Q96QZ7
  pKd: below the threshold
